Target: CDC42 (cell division cycle 42) (rat (endogenous in rat testis)) (UniProt Q8CFN2)
Assay: proximity ligation; Duolink II in situ PLA on Bouin-fixed, paraffin-embedded rat testis sections; antigen retrieval in citrate buffer (10 mM, pH 6.0, 0.05% Tween 20); anti-ApoH goat polyclonal 2.5 ug/ml and anti-CDC42 rabbit polyclonal 5 ug/ml; probes anti-rabbit PLUS and anti-goat MINUS; controls with one primary antibody only

Chain of UniProt Q8CFN2 (Q8CFN2 whole entry): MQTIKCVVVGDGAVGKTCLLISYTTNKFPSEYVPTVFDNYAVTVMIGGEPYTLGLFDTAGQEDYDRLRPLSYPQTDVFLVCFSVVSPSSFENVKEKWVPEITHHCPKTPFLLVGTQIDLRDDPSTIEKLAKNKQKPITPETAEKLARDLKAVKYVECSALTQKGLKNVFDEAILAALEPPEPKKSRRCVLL

PLA signals per 0.25 mm^2 (PLA signals/0.25 mm^2): 312
Substance: APOH (apolipoprotein H) (from UniProt P26644 20-297) (natural protein)

Reference: PMC4128672
